In assay [1] the target is EBOV GP[change] (Ebola virus) (UniProt Q05320).
Assay [2] shares this target. The source holds these as a separate data set.
The target is the same in assay [3]. The source holds these as a separate data set.
The target is the same in assay [4]. The source holds these as a separate data set.
Assay [5] shares this target. This is another data set of the same source.
The target is the same in assay [6]. This is another data set of the same source.
Assay [7] has the same target. The source holds these as a separate data set.
Assay [8] has the same target. The source holds these as a separate data set.
Assay [9] has the same target. The source holds these as a separate data set.
The target is the same in assay [10]. The source holds these as a separate data set.
For assay [11] the target is unchanged. The source holds these as a separate data set.

Like-named read-outs stand apart in the source and are kept apart here.

Sequence of EBOV GP[change] (Ebola virus) (Q05320 33-501, chain 1 of 2): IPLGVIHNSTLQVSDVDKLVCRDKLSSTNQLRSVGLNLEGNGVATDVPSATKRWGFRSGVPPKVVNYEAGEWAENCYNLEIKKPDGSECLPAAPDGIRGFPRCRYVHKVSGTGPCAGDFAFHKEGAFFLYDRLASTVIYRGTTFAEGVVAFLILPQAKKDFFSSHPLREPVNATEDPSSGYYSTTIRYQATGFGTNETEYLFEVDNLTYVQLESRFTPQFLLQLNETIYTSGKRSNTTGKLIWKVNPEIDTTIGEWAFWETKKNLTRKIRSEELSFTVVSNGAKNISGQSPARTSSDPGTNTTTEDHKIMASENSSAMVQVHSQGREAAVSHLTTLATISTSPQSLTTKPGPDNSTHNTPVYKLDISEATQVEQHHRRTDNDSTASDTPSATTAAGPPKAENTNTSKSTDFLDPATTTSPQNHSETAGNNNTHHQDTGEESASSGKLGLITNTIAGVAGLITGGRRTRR
Sequence of EBOV GP[change] (Ebola virus) (Q05320 502-650, chain 2 of 2): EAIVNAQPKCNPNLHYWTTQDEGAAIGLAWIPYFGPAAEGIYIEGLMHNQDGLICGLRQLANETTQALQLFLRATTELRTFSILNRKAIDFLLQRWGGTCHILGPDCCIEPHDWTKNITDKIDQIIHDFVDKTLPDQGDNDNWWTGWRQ

B1: PE-87 H108A (antibody, V domains shown)
VH: QVQLVQSGVTLVQPGGSLRVSCAASGFTFSSYAMSWVRQAPGKGLEWVSAISGLGGSTYYADSVKGRFTISRDNSKNTLYLQMNSLRAEDTAVYYCAKDHRVWAAGYAFDYWGQGALVTVSS
VL: DIVLTQSPSTLSASVGDRVTITCRASQSISSWLAWYQQKPGEAPKLLISDASSLESGVPSRFSGSGSGTEFTLTISSLQPDDFATYYCQQYYSSPTFGGGTKVEIK
The Kd is the equilibrium constant for the complex coming apart. Turning to B1, in assay [1], the Kd was determined as 18 nM.

B2: PE-87 H100A (antibody, V domains shown)
VH: QVQLVQSGVTLVQPGGSLRVSCAASGFTFSSYAMSWVRQAPGKGLEWVSAISGLGGSTYYADSVKGRFTISRDNSKNTLYLQMNSLRAEDTAVYYCAKDARVWAAGYHFDYWGQGALVTVSS
VL: DIVLTQSPSTLSASVGDRVTITCRASQSISSWLAWYQQKPGEAPKLLISDASSLESGVPSRFSGSGSGTEFTLTISSLQPDDFATYYCQQYYSSPTFGGGTKVEIK
Turning to B2, the Kd in assay [2] stood at 4.5 nM.

B3: PE-87 Y111A (antibody, V domains shown)
VH: QVQLVQSGVTLVQPGGSLRVSCAASGFTFSSYAMSWVRQAPGKGLEWVSAISGLGGSTYYADSVKGRFTISRDNSKNTLYLQMNSLRAEDTAVYYCAKDHRVWAAGYHFDAWGQGALVTVSS
VL: DIVLTQSPSTLSASVGDRVTITCRASQSISSWLAWYQQKPGEAPKLLISDASSLESGVPSRFSGSGSGTEFTLTISSLQPDDFATYYCQQYYSSPTFGGGTKVEIK
In the case of B3, in assay [3], the Kd came to 5.9 nM.

B4: PE-87 R101A (antibody, V domains shown)
VH: QVQLVQSGVTLVQPGGSLRVSCAASGFTFSSYAMSWVRQAPGKGLEWVSAISGLGGSTYYADSVKGRFTISRDNSKNTLYLQMNSLRAEDTAVYYCAKDHAVWAAGYHFDYWGQGALVTVSS
VL: DIVLTQSPSTLSASVGDRVTITCRASQSISSWLAWYQQKPGEAPKLLISDASSLESGVPSRFSGSGSGTEFTLTISSLQPDDFATYYCQQYYSSPTFGGGTKVEIK
With B4, in assay [4], the Kd came out at 9.4 nM. This lies in the single-digit nanomolar range.

B5: PE-87 F109A (antibody, V domains shown)
VH: QVQLVQSGVTLVQPGGSLRVSCAASGFTFSSYAMSWVRQAPGKGLEWVSAISGLGGSTYYADSVKGRFTISRDNSKNTLYLQMNSLRAEDTAVYYCAKDHRVWAAGYHADYWGQGALVTVSS
VL: DIVLTQSPSTLSASVGDRVTITCRASQSISSWLAWYQQKPGEAPKLLISDASSLESGVPSRFSGSGSGTEFTLTISSLQPDDFATYYCQQYYSSPTFGGGTKVEIK
In turn, B5 registered a Kd in [5] of 37 nM.

B6: PE-87 G106A (antibody, V domains shown)
VH: QVQLVQSGVTLVQPGGSLRVSCAASGFTFSSYAMSWVRQAPGKGLEWVSAISGLGGSTYYADSVKGRFTISRDNSKNTLYLQMNSLRAEDTAVYYCAKDHRVWAAAYHFDYWGQGALVTVSS
VL: DIVLTQSPSTLSASVGDRVTITCRASQSISSWLAWYQQKPGEAPKLLISDASSLESGVPSRFSGSGSGTEFTLTISSLQPDDFATYYCQQYYSSPTFGGGTKVEIK
Consider B6, for which the Kd in assay [6] stood at 0.03 nM.

B7: PE-87 W103A (antibody, V domains shown)
VH: QVQLVQSGVTLVQPGGSLRVSCAASGFTFSSYAMSWVRQAPGKGLEWVSAISGLGGSTYYADSVKGRFTISRDNSKNTLYLQMNSLRAEDTAVYYCAKDHRVAAAGYHFDYWGQGALVTVSS
VL: DIVLTQSPSTLSASVGDRVTITCRASQSISSWLAWYQQKPGEAPKLLISDASSLESGVPSRFSGSGSGTEFTLTISSLQPDDFATYYCQQYYSSPTFGGGTKVEIK
Take B7: the dissociation constant (Kd) in assay [7] amounted to 1.3 nM.

B8: PE-87 Y107A (antibody, V domains shown)
VH: QVQLVQSGVTLVQPGGSLRVSCAASGFTFSSYAMSWVRQAPGKGLEWVSAISGLGGSTYYADSVKGRFTISRDNSKNTLYLQMNSLRAEDTAVYYCAKDHRVWAAGAHFDYWGQGALVTVSS
VL: DIVLTQSPSTLSASVGDRVTITCRASQSISSWLAWYQQKPGEAPKLLISDASSLESGVPSRFSGSGSGTEFTLTISSLQPDDFATYYCQQYYSSPTFGGGTKVEIK
On to B8, for which, in assay [8], the equilibrium dissociation constant (Kd) is 30 nM.

B9: PE-87 V102A (antibody, V domains shown)
VH: QVQLVQSGVTLVQPGGSLRVSCAASGFTFSSYAMSWVRQAPGKGLEWVSAISGLGGSTYYADSVKGRFTISRDNSKNTLYLQMNSLRAEDTAVYYCAKDHRAWAAGYHFDYWGQGALVTVSS
VL: DIVLTQSPSTLSASVGDRVTITCRASQSISSWLAWYQQKPGEAPKLLISDASSLESGVPSRFSGSGSGTEFTLTISSLQPDDFATYYCQQYYSSPTFGGGTKVEIK
B9 returned an equilibrium dissociation constant (Kd) in assay [9] of 4 nM.

B10: PE-87 D110A (antibody, V domains shown)
VH: QVQLVQSGVTLVQPGGSLRVSCAASGFTFSSYAMSWVRQAPGKGLEWVSAISGLGGSTYYADSVKGRFTISRDNSKNTLYLQMNSLRAEDTAVYYCAKDHRVWAAGYHFAYWGQGALVTVSS
VL: DIVLTQSPSTLSASVGDRVTITCRASQSISSWLAWYQQKPGEAPKLLISDASSLESGVPSRFSGSGSGTEFTLTISSLQPDDFATYYCQQYYSSPTFGGGTKVEIK
The molecule B10 came in with a Kd in assay [10] of 1.3 nM. In other words, the single-digit nanomolar range.

B11: PE-87 D99A (antibody, V domains shown)
VH: QVQLVQSGVTLVQPGGSLRVSCAASGFTFSSYAMSWVRQAPGKGLEWVSAISGLGGSTYYADSVKGRFTISRDNSKNTLYLQMNSLRAEDTAVYYCAKAHRVWAAGYHFDYWGQGALVTVSS
VL: DIVLTQSPSTLSASVGDRVTITCRASQSISSWLAWYQQKPGEAPKLLISDASSLESGVPSRFSGSGSGTEFTLTISSLQPDDFATYYCQQYYSSPTFGGGTKVEIK
Consider B11, for which the Kd in assay [11] was determined as 74 nM.

These data come from patent EP3583122A1.
